# Molecular target: His-tagged recombinant human apolipoprotein L3 (rHis-APOL3) (human)
# Assay: native MS
substance,measurement,value
His-tagged recombinant human apolipoprotein L3 (rHis-APOL3) (natural protein),stoichiometry N,2

# From publication PMC8422858
